Results on two substances are retold here after patent publication US20020119148A1.

The target in experiment [1] is HRG binding sites on human mammary carcinoma cell lines MDA-MB-453, T47D and BT474. Description: self-competition, 100 nM unlabeled HRG against 125I-HRG on BT474 cells.
Experiment [2] shares this target. Description: self-competition, 100 nM unlabeled HRG against 125I-HRG on MDA-MB-453 cells.
Experiment [3] shares this target. Briefly: self-competition, 100 nM unlabeled HRG against 125I-HRG on T47D cells.
In experiment [4] the target is HER-2 on human mammary carcinoma cell lines MDA-MB-453, T47D and BT474 (human) (UniProt P04626). Briefly: 125I-HRG binding to T47D cells, 100 nM Mab.

With “HRGβ1(177-244), EGF-like domain of heregulin β1 (from UniProt Q02297 177-244) (ligand)”, the values for the percent of 125I-HRG binding blocked in experiment [1], in experiment [2] and in experiment [3] were 96%, 99% and 98%, respectively.

On to anti-HER-2 control Mab 4D5 (antibody), for which, in experiment [4], the percent of 125I-HRG binding blocked was determined as 48%.
